Results as given in the DeepSol protein solubility set.

test: soluble on expression in E. coli; label from the status in PepcDB or PDB records

Sequence | soluble on expression in E. coli
MHMKLDDITYMNPWWEGKEDYHVKQWEKQKVHWEPKWIREISLKPFSLNFVLGPRQVGKTTGIKLLIQKILEENPPESVLYLNLEILPTYRELLDIIREFQELKKEEGIKTGYIFLDEASSLEGWWRGVKPLIDSGLLENDVITVTGSSSLRVRRDIELFPGRRGGGKTLEVMPLSFPEYARVMGLKKHKLEGSKVIKLFEKYIQTGGFPGSINGFPMEDLLGAYIGEFVRFGKSLEIAKEIFSALIRSAPSATSFRALAEMTSGYSYKVVQDYIEFFRDLYILGMAYLKQGNQVMYRREKKFFFRDPLLAKLFSLWSGTEIGKDALYEWIVQEHVFRKFGEIHYFRNSYEIDIIASDMKIEVKAGKAHRKYPRGVKVLEKEDVPFFLIELYNEDC | soluble
MGFDLDVEKKKENRNIPQANNLKIKVIGVGGAGNNAINRMIEIGIHGVEFVAVNTDLQVLEASNADVKIQIGENITRGLGAGGRPEIGEQAALESEEKIREVLQDTHMVFITAGFGGGTGTGASPVIAKIAKEMGILTVAIVTTPFYFEGPERLKKAIEGLKKLRKHVDTLIKISNNKLMEELPRDVKIKDAFLKADETLHQGVKGISELITKRGYIRLTSRFARIESVMKDAGAAILGIGVGKGEHRAREAAKKAMESKLIEHPVENASSIVFNITAPSNIRMEEVHEAAMIIRQNSSEDADVKFGLIFDDEVPDDEIRVIFIATRFPDEDKILFPEGDIPAIYRYGLEGLL | soluble
MGHHHHHHSHVTNLNLATGIINRSSASAPPTLRPIISPSGPTWSTQSDPQAPENHSSSPGSSFI | not soluble
MGSDKIHHHHHHAADPVVVPANMEPLTIEGNRFVTLCIMIRTTPWEVSRDVKLHPRDEVDWHTLEGVRALREAFATNNPNGRLTWGFTMNALEDGRKNYREIRDYVVECQKKYGDEVTYFPGYFPAMYLPRERVNREMSEAIEIISKMVGNGYRPQSIMGGFLSADNLRYLAEKENIHVAHAVIWSQHNIDGGGADGSPSYPFYPSTEHFCKPAQGKSDFIDCVNLDGWTMDFICARRSGQTGHGIDGYNSRRGVGPIETYKGWGLDLGHREVMHTEAIHFDKGLELNGFGWVANIWEAQMVHEFGKDLICDAMKMWVTGTKERWPDTHFVTFGEFGELWRKQYKSNDDWNYRFVERGSGLGDSYNNLEIKWFMNKEFRLALLRDWHTKNSPAYVIDFTRYDLQAHEPADPSPEKPAKDWSLINKINQKALRPQDKPVLIDKLEKEDQDLIRKYYPELLK | not soluble
MAHHHHHHMFHGFPDVQIAPRDTVISEEFHLHDKEGRMGTLLQPMAQRMRISFSALTCLGSYAQNATCHYALFGRLCGVQLNETIEVTNVLPPVINPRPPEDETPEQREKRLLAQQREERQMYERMGKMFFKEELDSYHVGYFAICSAYTNAPYSVRTVQQLAQLALDGNPSVLVVYDPFRTSLMGKLYLRAFVPTREYVEFYTRLTDKRNILRENRLMRECNVGKGGVLREVKVEVDVDEYQLLCLSGFNVAPLSSTCRTLHSEVMTDYMAALIESVRHNADELSRGLHSESYFSQKEESYGPLGQRIDTLLKLMQLREQTQHLESLCDGVLLNTSLLRDL | soluble
MSVTLHTTSGDIKIELYVDDAPKACENFLALCASDYYNGCIFHRNIKDFMVQTGDPTHSGKGGESIWGGPFEDEFVSALKHDSRGCVSMANNGPDSNRSQFFITYAKQAHLDMKYTLFGKVIDGFDTLEEIETIKVDNKYRPLVQQK | not soluble
TWCPGCGNFAILKAFERASRRVIEEGFDIAVSSGIGCHGKISDYLSLPGFHVIHGRVPPFLTGLKLANPNLVVVGFSGDGDGLNEGVEHLVHAARRNTDITIILHNNGVFGLTTGQVTATSPRGRKSRSTPRGNPEYPLNPCHLMLVSGATFVARVFAGEQERLSEVFYNAMKHKGFSFVEVMQPCVSFNNFWEMRK | not soluble
MITTRTAKQCGQADYGWLQARYTFSFGHYFDPTLLGYASLRVLNQEVLAPGASFQPRTYPKVDILNLILDGEAEYRDSDGNHVQAKAGEALLLAAQPGISYSEHNISKVKPLTRMQLWLDACPERENTLVQKIPLLAAQQQLLASPDGEQNSLQLRQQVWVHHITLEKGESLNFQLHGPRAYLQSIHGTFHAMTHNEEREALTCGDGAFIRDEPNITLVADTPLRALLVDLPV | not soluble
MAHHHHHHMKCVVCDADKAGYRCRACRSAYCSSQCYRKHRMSREEAAAQVANINAATSSFAHLCETVVAAQRPQKELDEKRQRTEAEADVFSDVSREKVAAAGAVHGSENDAPPPSTAPAVETAWKTATGASEASGPACAEPQPSARTEYAGDSDAVYILQEKHLGALAHDPRVRSALRSPSLQKLIKTIDSSRSRLDALEAAQYNNADFKGFCDAVLRVIAEVEGR | soluble
MADKLDEIIDKVASGQRKKDTIEDTEEEGTRKRKIEQFEDIERPNELSGFKKQKIEENSEIHAEETEESVEAQMVMKKPSEEPELKRRKILIHMEPSITETNPMRIWTVADDLALLTAVAHVQCIRFIHNSLTFSRKFTFSDVEERYCQLMFDEEISKSAKVRLDAMPHRLKAQIEARTPFTRNEERTLMELAENQLKNARKERQDVENHTVLTILHFKKILDGNRQSFHKSRTPQVLSDHYRRIKGYRSEQGNNYNWQALEALTDGNTMDFDINAPLQAARSRYAAISRRPALSGILNRFKTSGSVPDNAIAMINGQFLQYAMTGKSVTMGRASLNEKIDIDLSKEGPATKVLEGRRQLFPVNKR | soluble
MAFFESDIVQDEAKRLFGDYQQLMQLGSEYGKFDREGKKKFIETMEELMGRYRVFMKRFELSEDFQAKLTVEQLRTQLSQFGITPEQMFEQMNATLERMKAQIELPPSS | not soluble
MAHHHHHHMMQPHSQTRAFYCCDDEDKEGTDELLGELLFGADGRRGTDLSSTRCPPPAAPPASLDIAAPASAAATGSGAELPRLRYSRPPPHLTQTTLDLGHAEPTMATRCLLCRMLYSPENDEDAALHRRFCRGGRLRRRDRGPYDAPSSFTGACRSRRARTETAASPLASLSSPAAVAVHMLEELNGAGLGHSPSPLVANTTATVRRGGPRRRESGARGVAKATYTATDTLNTAADATVSLCTCVLRPRSSSSSSPHLSSPLAVFRISLNACGVADSKGGCTALRLLELLDFTPVVLRAAAERDVAPQTASSSVLCGNVPVVPSVRDSAASTVHVVCVVDTVLRLLLCAVVGEPRSREQDPELCVERRADGATVCSTRRNFTHGDVAGLWVLSPAELSAAQTAWEKSTAAPFASTRQALEVFFGTRAGGGAPSSAQSHAAHVTEKAHERCQQAAGVALHALAQYLVYGSSLCPSRQLSYSQAALAAAERMGAGFMEQCLAVASSCYLAGATPTPREDVGELQPLYIHGDSDDGGSDSDDANEDAKGVIGE | not soluble
MSLSHVFEALSTETLPVRLGGNAAMKEKVGSDSSRWAIREVGDGNLNLVFIVTGEAGAVIVKQALPYVRLVGESWPLPLKRSFFEYHALKRQGARDPGMVPEILFFDEAQAIIVMEFLTPHIILRRALIDGRELPKIGRDLGLFVARTLFRGSDLSMVTREKKADVALFSDNVELCDITENLVFSDPYFEAKLNHHTTPQLDPIVAELRADRELKVEAQRLKHLFSAKAETLCHGDLHTGSVMVTDDETRVIDPEFAFYGPISFDVGMLIANFWMSYFSQAGHETAPGARDSMRAYLLDTIDTLWETFRAEFAALWRTERKGILYQASLFEDRQDPLAAEQALNIVIDEIWHEMLGFAGIETHRRILGLAHNADFETITDPDRRASCESKALKFGRHLAVNRQRIHSLRDIRETVERLEKEILAEGHHHHHH | soluble
MGSDKIHHHHHHMKLKYVLYMAAALSLTGCNDSFLERGPQNLNDQSFWISVNDLKAYANAFYGLIPGGVSVLDDTDSDIQVPNDINSFLWGQYVVPTEGGVWQKSNWQNIRNINYFMTHYQSVQAAEADVNIYVAEMRFFRALEYFNKIQLLGDVPWLEVDLNVDSEELYGPKMKRNQVFQKIIEDLDFAIQWLPEAGSEEANRLNKDIARHVKARFCLNEGTHYKYHDELEYASEAEKWLQMAATESDKLITSGRYEIYNTGHPQEDYFNMYRIDDKSDLKEAVLYVDYKTNIREHNMAAAGREAGCGFSKSFVESFLCSDGLPISLSNKYLGDETMRKETANRDPRLKQLILTNDFPTNVTDDLKDSTFVVNEDEFITQHCFTGYRPIKGFNPIYSQALYMKSSFDGIAYRYAETLLINAEAKAELNTITNADLDRTVNQLRDRVGMPHLTVM | not soluble
MSFFDKVKGALTSGREELTRQVGRYKNKKFMQGTVAVCARIAVASDGVSSEEKQKMIGFLRSSEELKVFDTAEVIEFFNKLVTSFDFDLEIGKGETMKYILALKDQPEAAQLALRVGIAVAKSDGNFDDDEKSAVREIARSLGFDPAEFGLLE | soluble
MGHHHHHHSHMVCSPVTVRIAPPDRRFSRSAIPEQIISSTLSSPSSNAPDPCAKETVLSALKEKKKKRTVEEEDQIFLDGQENKRSCLVDGLTDASSAFKVPRPGPDTLQFTVDVFHFANDSRNMIYITCHLKVTLAEQDPDELNKACSFSKPSNSWFPVEGPADICQCCNKGDCGTPSHSRRQPRVVSQWSTSASRNRRHVTEEADVTVGATDLPGQEW | not soluble
SVLPETPVPFKSGTGAIDNDTVYIGLGSAGTAWYKLDTQAKDKKWTALAAFPGGPRDQATSAFIDGNLYVFGGIGKNSEGLTQVFNDVHKYNPKTNSWVKLMSHAPMGMAGHVTFVHNGKAYVTGGVNQNIFNGYFEDLNEAGKDSTAIDKINAHYFDKKAEDYFFNKFLLSFDPSTQQWSYAGESPWYGTAGAAVVNKGDKTWLINGEAKPGLRTDAVFELDFTGNNLKWNKLAPVSSPDGVAGGFAGISNDSLIFAGGAGFKGSRENYQNGKNYAHEGLKKSYSTDIHLWHNGKWDKSGELSQGRAYGVSLPWNNSLLIIGGETAGGKAVTDSVLITVKDNKVTVQNLEHHHHHH | soluble
MPLLGLLPRRAWASLLSQLLRPPCASCTGAVRCQSQVAEAVLTSQLKAHQEKPNFIIKTPKGTRDLSPQHMVVREKILDLVISCFKRHGAKGMDTPAFELKETLTEKYGEDSGLMYDLKDQGGELLSLRYDLTVPFARYLAMNKVKKMKRYHVGKVWRRESPTIVQGRYREFCQCDFDIAGQFDPMIPDAECLKIMCEILSGLQLGDFLIKVNDRRIVDGMFAVCGVPESKFRAICSSIDKLDKMAWKDVRHEMVVKKGLAPEVADRIGDYVQCHGGVSLVEQMFQDPRLSQNKQALEGLGDLKLLFEYLTLFGIADKISFDLSLARGLDYYTGVIYEAVLLQTPTQAGEEPLNVGSVAAGGRYDGLVGMFDPKGHKVPCVGLSIGVERIFYIVEQRMKTKGEKVRTTETQVFVATPQKNFLQERLKLIAELWDSGIKAEMLYKNNPKLLTQLHYCESTGIPLVVIIGEQELKEGVIKIRSVASREEVAIKRENFVAEIQKRLSES | soluble
KVMMPKVEERDDSEAPKAFFSEYEICNPALDGKSVREVALLLKRPFVITRVWHNGKVEIPTSDMILYFGDHILAVSGEEDTSQLEILFGKREMKDWNRPDIDWNSVDKQLVSRRLVITRPKLNGVRLGMLKIRNLYGVNISRVDRAGVELLPDRDLRLQLGDRLTVVGEGKAVERVAEILGDEVKQLDNPH | not soluble
